The Immune Epitope Database (IEDB)

The sequences below were run against HLA-A*02:01 (assay: IEDB peptide-MHC binding, purified MHC/competitive/radioactivity; ≥ and ≤ were set here for values at or beyond the usual limits of such assays). Conditions: source organism: Bordetella pertussis.

Sequence	IC50
YVLVKTNMV	3.96 µM

Each sequence was assayed against HLA-B*07:02 in the same assay as above. Conditions: source organism: Bordetella pertussis.

Sequence	IC50
EPASANTLL	15 µM
LKRPGSSPM	3.84 µM

These sequences were tested against HLA-B*35:01 in the same assay as above. Conditions: source organism: Bordetella pertussis.

Sequence	IC50
EPASANTLL	69.9 µM
GAASSYFEY	2.67 µM
NALAWALML	6.31 µM

Each sequence was assayed against HLA-B*44:03 in the same assay as above. Conditions: source organism: Bordetella pertussis.

Sequence	IC50
AAQATVVQR	23.3 µM
AEVTDTSPS	41.2 µM
FEPGITTNY	42.8 µM
GAASSYFEY	44 µM
RELSAAANA	21.1 µM
YEYIWGLYQ	8.91 µM

These sequences were tested against HLA-B*53:01 in the same assay as above. Conditions: source organism: Bordetella pertussis.

Sequence	IC50
ASPRRARRA	69.9 µM
GAASSYFEY	47.3 µM
LAANGNGQW	1.67 µM
LATYQSEYL	≥ 78.2 µM
MPIDRKTLC	1.63 µM
PKPKPKAER	≥ 78.2 µM
TAGATPFDI	4.91 µM

The sequences below were run against HLA-B*57:01 in the same assay as above. Conditions: source organism: Bordetella pertussis.

Sequence	IC50
ASVSNPGTF	40.8 µM
KSLPGGKLP	5.78 µM
